Reference: paper PMC10197177
pKd: −log10 of the molar value.

Key:
Test in all cases: ELONA
Settings in all cases: pH 7.4, room temperature, spike immobilized
[1] = biological target: Spike protein, Alpha (SARS-CoV-2 (Alpha variant)) (UniProt P0DTC2)
[2] = biological target: Spike protein, Beta (SARS-CoV-2 (Beta variant)) (UniProt P0DTC2)
[3] = biological target: Spike protein, Delta (SARS-CoV-2 (Delta variant)) (UniProt P0DTC2)
[4] = biological target: Spike protein, Omicron (SARS-CoV-2 (Omicron variant)) (UniProt P0DTC2)

Sequence	pKd [1]	pKd [2]	pKd [3]	pKd [4]
AATGGATCCACATCTACGAGCTCGAACGCCCGGAGGAGACGGGGGCAGGGCGTGTTCACTGCAGACTTGACGAAGCT [K1 (truncated working aptamer)]	10.47	10.47	10.43	10.59
ATCTACGAATTCTCCGCCAAGATAGAGGGTGGGCCGCGGAGAATTCACTGC [M40 (truncated working aptamer)]	9.55	9.56	9.73	9.78
